Substitutions are numbered along the chain they refer to.
T1: ABCG2 (Homo sapiens, UniProt Q9UNQ0)
T1 construct: expressed in transfected cells
T1 sequence (Q9UNQ0 1-655): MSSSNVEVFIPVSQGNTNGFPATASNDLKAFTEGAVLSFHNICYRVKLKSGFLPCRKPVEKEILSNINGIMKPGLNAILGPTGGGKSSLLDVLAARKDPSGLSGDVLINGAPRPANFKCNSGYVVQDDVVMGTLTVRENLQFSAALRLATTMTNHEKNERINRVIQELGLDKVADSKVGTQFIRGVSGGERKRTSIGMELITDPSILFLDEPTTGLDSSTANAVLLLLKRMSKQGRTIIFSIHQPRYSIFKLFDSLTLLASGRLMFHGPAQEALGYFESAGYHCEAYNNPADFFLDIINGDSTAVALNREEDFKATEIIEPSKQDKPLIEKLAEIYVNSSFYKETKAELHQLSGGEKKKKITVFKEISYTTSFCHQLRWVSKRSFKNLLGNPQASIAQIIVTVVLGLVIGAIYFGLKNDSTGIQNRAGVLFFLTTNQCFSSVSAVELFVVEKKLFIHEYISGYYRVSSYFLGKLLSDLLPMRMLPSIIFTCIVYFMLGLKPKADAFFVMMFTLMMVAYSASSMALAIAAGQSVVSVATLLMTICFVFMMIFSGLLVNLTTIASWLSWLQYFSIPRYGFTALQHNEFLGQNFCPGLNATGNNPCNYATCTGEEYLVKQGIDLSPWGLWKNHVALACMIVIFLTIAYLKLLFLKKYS

B1: G2.173 mouse: anti-ABCG2 antibody raised in mouse, listed in Table 2 (antibody, V domains shown)
VH: QVQLQQSGADLVRPGASVKLSCTASGFNIKDDYVHWVKQRPEQGLEWIGRIDPANGNTRYAPKFRGKATMTADTSSNTAYLQLSSLTSADTAVYYCSPPLWVGGFAYWGQGTLVTVSS
VL: DVVMTQTPLSLPVSLGDQASISCRSSQSLVHSDVNTYLHWYLQRPGQSPKLLIYKVSNRFSGVPDRFSGSGSGTDFTLKISRVESEDLGIYFCSQTTHVPYTFGGGTKLEIK
B2: G2.173 Humanized 1: humanized version of anti-ABCG2 antibody G2.173 (antibody, V domains shown)
VH: EVQLVQSGAEVKKPGASVKVSCKASGFNIKDDYVHWVRQAPGQGLEWIGRIDPANGNTRYAPKFRGRATMTADTSISTAYMELSRLRSDDTAVYYCSPPLWVGGFAYWGQGTLVTVSS
VL: B1 VL with T7S, S14T, D17Q, Q18P, L42Q, K50R, S85A, L88V, I90V
B3: G2.173 Humanized 3: humanized version of anti-ABCG2 antibody G2.173 (antibody, V domains shown)
VH: B2 VH with N55S
VL: B1 VL with T7S, S14T, D17Q, Q18P, L42Q, K50R, S85A, L88V, I90V
B4: G2.173 Humanized 2: humanized version of anti-ABCG2 antibody G2.173 (antibody, V domains shown)
VH: B2 VH with N55Q
VL: B1 VL with T7S, S14T, D17Q, Q18P, L42Q, K50R, S85A, L88V, I90V
B5: G2.642 rat: anti-ABCG2 antibody raised in rat (antibody, V domains shown)
VH: QIQLVQSGAELVKPGASVKLSCKTSGFTFSSNYISWLRQKPRQSLEWIAWIYSGTGGTYYNQKFTGKAQLTIDTSSNTAYMQLSSLTSEDSAIYYCARHVGLRYWYFDVWGAGTSVTVSS
VL: DIVLTQSPASLTVSLGQRATISCRASESVDSNGNSFMHWYQQKPGQSPKVLIYRASNLESGVPARFSGSGSRTDFTLTINPVEADDVATYYCQQSNEDPWTFGGGTKLEIKREF
B6: G2.420 rat: anti-ABCG2 antibody raised in rat (antibody, V domains shown)
VH: SVQLMESGPGLVQPSQTLSLTCTVSGFSLNSYNVNWVRQPPGKGLEWIAAISSGGSTYYNSVLKSRLSITRDTSKSQVFLKMNSLQTEDTAMYFCARSGYYSSYMNWGQGVMVTVSS
VL: DVVMTQTPPTLSATIGQSVSISCRSSQSLLHSTGNTYLNWLLQRPGQPPQLLIYLVSRLEYGVPNRFSGSGSGTDFTLKISGVEAEDLGVYYCAQSTHALNTFGAGTKLELK
B7: G2.318 rat: anti-ABCG2 antibody raised in rat (antibody, V domains shown)
VH: EVKLLESGPGLVKPSQSLSLTCSVTGYTITSGYDWSWIRKFPGNKMEWMGYISYSGWTNYNPSLRSRISISRDTSKNQFFLQLNSVTTEDTATYYCARVRGYNPFAYWGQGTLVTVSS
VL: DIVMTQSPSLLSASVGDRVTLSCKAGQNINNYLAWYQQKLGEAPKLLIYNANSLQTGIPSRFSGSGSGTDFTLTISSLQPEDVATYFCQQYNSWTTFGSGTKLEIK
B8: G2.630 rat: anti-ABCG2 antibody raised in rat (antibody, V domains shown)
VH: B7 VH with K3Q, L5V, S36T, W57F, S71T, A97T, V99T
VL: B7 VL with I2V, Q27R, E42K, A51T
B9: G2.320 rat: anti-ABCG2 antibody raised in rat (antibody, V domains shown)
VH: EVQLEESGPGLVKPSQSLSLTCSVTGYTITSGYDWTWIRKFPGNKMEWMGYISYSGFTNYNPSLRSRISITRDTSKNQFFLQLNSVTTEDTATYYCTRTRGYNPFAYWGQGASVSSAS
VL: B7 VL with Q27R, E42K, A51T
B10: G2.641 rat: anti-ABCG2 antibody raised in rat (antibody, V domains shown)
VH: EVKLEESGGGLVQPGRSLKLSCAASGFTFSRFYMAWVRQAPTKGLEWVAHISHGGDTTYYRDSVKGRFTISRDNAKSTLFLQMDSLRSEDTATYYCTTSAAPWNYVMDGWGLGASVTVSS
VL: DIQMTQSPSLLSASVGDRVTLTCKGSQNINNFLAWYQQKLGEAPKLLIYKTNSLHTGIPSRFSGSGSGTDYTLTISSLHSEDLATYYCYQYNNGYTFGAGTKLELK
B11: G2.643: Anti-G2 antibody raised in rats (antibody, V domains shown)
VH: VNLVESGPELVKPGTSVKISCKASGYRFTSYYVHWVKQRPGQGLEWIGWIFPGSDNTKYNEKFKGKATLTADTSSSTAYMQLSSLTSEDSAVYFCASIYYGYDGTLYFDYWGQGTSVTVSS
VL: DIVMTQSHTFMSTSVGDRVSVTCKASQNVGNNVAWYQQKPGQSPNALIYSASYRYSGVPDRFTGSGSGTDFTLTISNVQSEDLAEYFCQQYDRYPLTFGGGTKLEIK

tested on: cynomolgus ABCG2; assay: Flow cytometry binding to 293T cells overexpressing cynomolgus ABCG2; set-up: key to Cynomolgus ABCG2 binding: binding=“+”; non-significant binding=“−”; settings: not given
Experimental: (§1) Cell Binding Assays. Antibody binding to cells was evaluated by flow cytometry. 293T cells stably transfected to express human or cynomolgus ABCG2 (293T_ABCG2_OX) were washed once in flow cytometry buffer (PBS+2% FBS+0.02% sodium azide), resuspended at 2×10^6 cells/mL in flow cytometry buffer, and dispensed into 96-well microtiter plates at 0.1 mL/well. Recombinant antibodies were added to cells at 5 ug/mL for initial binding confirmation, or serially diluted from 100 ug/mL in flow cytometry buffer. After incubating cells on ice for 30 min, cells were washed twice with flow cytometry buffer. Bound antibody was detected with PE-labeled F(ab′)2 fragment goat anti-human IgG (Jackson ImmunoResearch) and evaluated on an Attune NxT flow cytometer. EC50 is calculated to be the concentration of antibody that gives half maximal response.

cynomolgus ABCG2, sequence (as listed by the source): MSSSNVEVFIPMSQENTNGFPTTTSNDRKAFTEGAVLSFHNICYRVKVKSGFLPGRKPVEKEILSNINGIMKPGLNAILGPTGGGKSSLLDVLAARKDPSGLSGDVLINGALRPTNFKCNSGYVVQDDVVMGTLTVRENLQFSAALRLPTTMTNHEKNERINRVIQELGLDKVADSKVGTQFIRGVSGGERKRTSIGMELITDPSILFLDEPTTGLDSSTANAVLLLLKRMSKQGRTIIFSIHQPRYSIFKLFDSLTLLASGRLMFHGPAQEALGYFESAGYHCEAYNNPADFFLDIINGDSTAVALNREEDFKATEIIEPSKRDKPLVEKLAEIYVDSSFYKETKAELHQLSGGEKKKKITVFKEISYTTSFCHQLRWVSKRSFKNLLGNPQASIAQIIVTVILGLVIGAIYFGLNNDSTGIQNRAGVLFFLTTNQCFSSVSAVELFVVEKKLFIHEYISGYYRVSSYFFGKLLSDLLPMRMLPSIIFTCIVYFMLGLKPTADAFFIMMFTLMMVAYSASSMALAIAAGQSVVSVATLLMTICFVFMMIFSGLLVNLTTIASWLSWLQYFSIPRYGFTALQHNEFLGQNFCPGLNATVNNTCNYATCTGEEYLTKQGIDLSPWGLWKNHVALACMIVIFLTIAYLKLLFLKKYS

Row | Molecule | Cynomolgus ABCG2 binding
1 | B1 | −
2 | B2 | −
3 | B3 | −
4 | B4 | −
5 | B5 | −
6 | B6 | +
7 | B7 | +
8 | B8 | +
9 | B9 | +
10 | B10 | +

same assay, conditions: in words; FIGS. 7-11, 21

Row | Molecule | binding to 293T cells overexpressing cynomolgus ABCG2
11 | B11 | strong binding

same assay, conditions: in words; FIGS. 7-11, 21; listed as G.643

Row | Molecule | binding to 293T cells overexpressing cynomolgus ABCG2
12 | B11 | did not show significant binding

tested on: 293T_ABCG2_OX cells; assay: not given; assay type: cell-based, human; settings: not given
Experimental: Cytotoxicity Assays. The effect of antibodies on topotecan cytotoxicity was evaluated on 293T_ABCG2_OX cells, 293T cells stably transfected to express ABCG2. Cells were plated in 0.05 mL of Assay Media (DMEM+10% FBS) at 5000 cells/well in white, flat bottom 96-well tissue culture plates. Topotecan was prepared at 2× final assay concentration by serial dilution from 200 uM in assay media containing test antibodies or control antibodies at 100 ug/mL (2× final concentration), or Fumitremorgin C, a small molecule ABCG2 inhibitor at 20 uM (2× final concentration). An equivalent volume (0.05 mL) of the topotecan/antibody mixture was added to the 293T_ABCG2_OX cells in 96-well plates. The plates were then incubated at 37° C., in 5% CO2. After 72-96 hr plates were equilibrated to room temperature and cell viability assessed using Promega® CellTiter-Glo® Luminescent Cell Viability Assay according to the manufacturer's recommended protocol. Luminescence was measured on a Molecular Devices® FlexStation® 3 Multi-Mode Microplate Reader and data analyzed using GraphPad Prism 8.0 software. Half maximal inhibitory concentration (1050) is the concentration of drug (topotecan or other chemotherapy cytotoxic agent) where the response (cell growth) is reduced by 50%.

Row | Molecule | effect on topotecan cytotoxicity on 293T_ABCG2_OX cells
13 | B11 | significantly increased the cytotoxic activity of topotecan
14 | B6 | significantly increased the cytotoxic activity of topotecan

same assay, conditions: cell killing by topotecan on 293T_ABCG2_OX cells; viability relative to IgG control

Row | Molecule | Killing
15 | B1 | − (≥75% of IgG control)
16 | B2 | − (≥75% of IgG control)
17 | B3 | − (≥75% of IgG control)
18 | B4 | − (≥75% of IgG control)
19 | B5 | − (≥75% of IgG control)
20 | B7 | + (viability ≥30% and <50% of IgG control)
21 | B8 | + (viability ≥30% and <50% of IgG control)
22 | B9 | + (viability ≥30% and <50% of IgG control)
23 | B10 | ++ (viability ≥10% and <30% of IgG control)

target: T1, ABCG2; assay: Flow cytometry binding to 293T cells overexpressing human ABCG2 (293T_ABCG2_OX); set-up: key to Binding by FACS: binding=“+”; non-significant binding=“−”; settings: 293T_ABCG2_OX cells
Experimental: as §1

Row | Molecule | Binding by FACS
24 | B1 | +
25 | B2 | +
26 | B3 | +
27 | B4 | +
28 | B5 | +
29 | B6 | +
30 | B7 | +
31 | B8 | +
32 | B9 | +
33 | B10 | +

same assay, conditions: 293T_ABCG2_OX cells; read-out: Affinity for human ABCG2

Row | Molecule | Kd
34 | B7 | 41 nM
35 | B9 | 58 nM

same assay, conditions: in words; FIGS. 7-11, 21

Row | Molecule | binding to 293T cells overexpressing human ABCG2
36 | B11 | strong binding

same assay, conditions: in words; FIGS. 7-11, 21; listed as G.643

Row | Molecule | binding to 293T cells overexpressing human ABCG2
37 | B11 | did not show significant binding

target: T1, ABCG2; assay: not given; assay type: cell-based; settings: not given
Experimental: 293T_ABCG2_OX cells were washed several times and aliquoted into 96-well plates as 50 μl aliquots/well at a cell density of 2×10e6 cells per ml in phenol red-free DMEM. Cells were mixed with 50 μl antibodies or the small molecule inhibitors of ABCG2:-fumitremorgin C (FTC), or its tetracyclic analogue K0143, with a final concentration of 1 μM. Cells were then incubated in the presence of 2.5 μM Mitoxantrone 1 h at 37° C. The cells were subsequently washed twice and finally resuspended in […] PBS. Mitoxantrone fluorescence was measured using excitation at 635 nm and emission at 647 nm. Protocols was measuring efflux blockade are found in Szabo E, et al., PLoS One. 2018 Jan. 17; 13(1):e0190629; Deeken J F, et al., Mol Pharmacol. 2009 November; 76(5):946-56).

Row | Molecule | Block Efflux | efflux inhibition activity
38 | B1 | − | 
39 | B2 | − | 
40 | B3 | − | 
41 | B4 | − | 
42 | B5 | − | 
43 | B6 | + | 
44 | B7 | + | strong efflux inhibition activity
45 | B8 | + | 
46 | B9 | + | 
47 | B10 | ++ | 

From patent publication US20230212305A1, “ANTI-ABCG2 ANTIBODIES AND USES THEREOF” (Kenjockety Biotechnology, Inc., priority 2020, published 2023)
